From the supplement of paper PMC10567573 come the findings set out here.

B1: FAM50A (parent)
chain: HIFPASRWEPYDPEKKWDKYTIR
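Note: lentivirally expressed fusions sorted by FACS into six bins by GFP to DsRed ratio, PSI derived from sequencing read proportions per bin multiplied by bin number.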

The variants in the data set derive from B1. Put plainly: protein stability index of a GFP-peptide fusion (GPS, HEK-293T) (PSI 1-6); higher = more stable. The conditions noted are these: c terminus: native.
On to HIFPASRWEPYDPEKRWDKYTIR [K16R], for which the protein stability index came out at 2.59. Then HIFPASRWEPYDPEKTWDKYTIR [K16T], with 1.81; and HIFPASRWEPYDPEKWWDKYTIR [K16W], with 1.92; and HIFPASRWEPYDPEKYWDKYTIR [K16Y], with 1.66. Then HIFPASRWEPYDPEKKWDKHTIR [Y20H], with 2.74.

As for HIFPASRWEPYDPEKKWDKRTIR [Y20R], the protein stability index was 2.81. For HIFPASRWEPYDPEKKWDKSTIR [Y20S] the value was 2.74; for HIFPASRWEPYDPEKKWDKFTIR [Y20F], 2.67. Then HIFPASRWEPYDPEKKWDKGTIR [Y20G], with 2.16. Then HIQPASRWEPYDPEKKWDKYTIR [F3Q], with 3.31; and HIEPASRWEPYDPEKKWDKYTIR [F3E], with 2.75; and HIFPASRWEPYDPEKKCDKYTIR [W17C], with 3.46.

HIFPASRWEPYDPEKKDDKYTIR [W17D]: the protein stability index is 2.51. Then HIFPASRWEPYDPEKKRDKYTIR [W17R], with 2.68; and HIFPASRWEPYDPEKKMDKYTIR [W17M], with 2.61; and HIFPASRWEPYDPEKKADKYTIR [W17A], with 2.45. Then HIFPASYWEPYDPEKKWDKYTIR [R7Y], with 1.65.

On to HIFPASWWEPYDPEKKWDKYTIR [R7W], for which the protein stability index turned out to be 1.22. As to HIFPASRWEPYDPEPKWDKYTIR [K15P], the protein stability index was 1.99. For HIFPASRWEPYDPERKWDKYTIR [K15R] the value was 1.8; for HIFPASRWEPYDPEQKWDKYTIR [K15Q], 2.13; for HIFPASRWAPYDPEKKWDKYTIR [E9A], 2.24. HIFPASRWWPYDPEKKWDKYTIR [E9W]: the protein stability index amounted to 2.74. For HIFPASRWPPYDPEKKWDKYTIR [E9P] the value was 2.57; for HIFPASRWQPYDPEKKWDKYTIR [E9Q], 2.2; for HIFPASRWMPYDPEKKWDKYTIR [E9M], 1.77.

As for HIFPASRWKPYDPEKKWDKYTIR [E9K], the protein stability index is 1.68. Then HIFPASRWHPYDPEKKWDKYTIR [E9H], with 1.88; and HIFPDSRWEPYDPEKKWDKYTIR [A5D], with 2.04.

Take HIFPYSRWEPYDPEKKWDKYTIR [A5Y]: the protein stability index was 1.5. Then HIFPPSRWEPYDPEKKWDKYTIR [A5P], with 3.42; and HIFPVSRWEPYDPEKKWDKYTIR [A5V], with 1.77. In the case of HIFPKSRWEPYDPEKKWDKYTIR [A5K], the protein stability index is 2.31. For HIFPCSRWEPYDPEKKWDKYTIR [A5C] the value was 1.73; for HIFPQSRWEPYDPEKKWDKYTIR [A5Q], 3.48. Then HIFPFSRWEPYDPEKKWDKYTIR [A5F], with 2.24; and HIFPSSRWEPYDPEKKWDKYTIR [A5S], with 3.2. Turning to HIFPESRWEPYDPEKKWDKYTIR [A5E], the protein stability index came out at 1.96. As to HIFPAIRWEPYDPEKKWDKYTIR [S6I], the protein stability index stood at 2.63. Then HIFPAFRWEPYDPEKKWDKYTIR [S6F], with 2.92. For HIFPANRWEPYDPEKKWDKYTIR [S6N] the value was 2.86. Then HIFPASRMEPYDPEKKWDKYTIR [W8M], with 3.42; and HIFPASRFEPYDPEKKWDKYTIR [W8F], with 2.17.

Consider HIFPASRWEPYDLEKKWDKYTIR [P13L], for which the protein stability index worked out at 1.58. For HIFPASRWEPYDIEKKWDKYTIR [P13I] the value was 3.04; for HIFPASRWEPYDTEKKWDKYTIR [P13T], 2.3. Then HIFPASRWEPYDWEKKWDKYTIR [P13W], with 1.25; and HIFPASRWEPYDKEKKWDKYTIR [P13K], with 2.25; and HIFPASRWEPYDMEKKWDKYTIR [P13M], with 2.53. On to HIFPASRWEPYDPEKKWDKYTIQ [R23Q], for which the protein stability index is 2.12. For HIFPASRWEPYDPEKKWDKYTIE [R23E] the value was 2.04.

Take HIFPASRWEPYDPEKKWDKYTIL [R23L]: the protein stability index turned out to be 2.54.

HIFPASRWEPYDPEKKWDKYTII [R23I]: the protein stability index turned out to be 2.21. As for HIFPASRWEPYDPEKKWDKYTIP [R23P], the protein stability index was found to be 3.67. Then HIFPASRWEPYDPEKKWDKYTIF [R23F], with 1.85; and HHFPASRWEPYDPEKKWDKYTIR [I2H], with 2.41. Then HSFPASRWEPYDPEKKWDKYTIR [I2S], with 2.83; and HEFPASRWEPYDPEKKWDKYTIR [I2E], with 2.95; and HDFPASRWEPYDPEKKWDKYTIR [I2D], with 2.28. Then HNFPASRWEPYDPEKKWDKYTIR [I2N], with 3.19. For the variant HIFPASRWEYYDPEKKWDKYTIR [P10Y], the protein stability index amounted to 2.89. On to HIFPASRWEPSDPEKKWDKYTIR [Y11S], for which the protein stability index was 2.83. Then HIFPASRWEPEDPEKKWDKYTIR [Y11E], with 2.37; and HIFPASRWEPCDPEKKWDKYTIR [Y11C], with 2.48. Turning to HIFPASRWEPYMPEKKWDKYTIR [D12M], the protein stability index was determined as 2.6. HIFPASRWEPYAPEKKWDKYTIR [D12A]: the protein stability index turned out to be 2.5. For HIFPASRWEPYGPEKKWDKYTIR [D12G] the value was 2.16; for HIFPASRWEPYYPEKKWDKYTIR [D12Y], 1.75; for HIFPASRWEPYSPEKKWDKYTIR [D12S], 2.49. Then HIFPASRWEPYDPEKKWDKYTMR [I22M], with 2.05; and HIFPASRWEPYDPEKKWDKYTDR [I22D], with 2.02; and HIFPASRWEPYDPQKKWDKYTIR [E14Q], with 2.04.

As for HIFPASRWEPYDPPKKWDKYTIR [E14P], the protein stability index stood at 2.2. With HIFPASRWEPYDPFKKWDKYTIR [E14F], the protein stability index was determined as 1.55. For HIFPASRWEPYDPTKKWDKYTIR [E14T] the value was 1.96. Then HIFPASRWEPYDPEKKWDKYSIR [T21S], with 1.89. Then HIFPASRWEPYDPEKKWDKYCIR [T21C], with 1.97; and HIFPASRWEPYDPEKKWDKYVIR [T21V], with 2.55. In the case of HIFPASRWEPYDPEKKWDKYRIR [T21R], the protein stability index worked out at 2.38. As to HIFPASRWEPYDPEKKWDKYAIR [T21A], the protein stability index was found to be 2.08. Then HIFEASRWEPYDPEKKWDKYTIR [P4E], with 2.45. As for HIFNASRWEPYDPEKKWDKYTIR [P4N], the protein stability index is 2.71.

Consider CIFPASRWEPYDPEKKWDKYTIR [H1C], for which the protein stability index turned out to be 2.4. Then QIFPASRWEPYDPEKKWDKYTIR [H1Q], with 2.5; and AIFPASRWEPYDPEKKWDKYTIR [H1A], with 1.75; and HIFPASRWEPYDPEKKWDWYTIR [K19W], with 3.02. HIFPASRWEPYDPEKKWDQYTIR [K19Q]: the protein stability index stood at 2.63. Turning to HIFPASRWEPYDPEKKWDCYTIR [K19C], the protein stability index worked out at 1.81. As to HIFPASRWEPYDPEKKWDFYTIR [K19F], the protein stability index is 2.25.

As to HIFPASRWEPYDPEKKWDVYTIR [K19V], the protein stability index amounted to 1.31. Then HIFPASRWEPYDPEKKWDPYTIR [K19P], with 2.3; and HIFPASRWEPYDPEKKWDRYTIR [K19R], with 2.6; and HIFPASRWEPYDPEKKWDGYTIR [K19G], with 2.84. Regarding HIFPASRWEPYDPEKKWNKYTIR [D18N], the protein stability index was determined as 4.48. Then HIFPASRWEPYDPEKKWLKYTIR [D18L], with 2.08; and HIFPASRWEPYDPEKKWTKYTIR [D18T], with 2.37; and HIFPASRWEPYDPEKKWRKYTIR [D18R], with 2.01.
